Reference: article PMC4303269

Molecular target: histone octamer

nucleosome formation fraction (package ratio, 15 min) of tethered 836-bp DNA in single-molecule TPM, 7.5 nM histone octamer pre-incubated with 15 nM yNap1, 150 mM NaCl (87.3 % without chaperone): 70.5%
Substance: nucleosome assembly protein 1 (yNap1) (from UniProt P25293 1-417) (natural protein)
